Patent US20130210151

Assays:
[1] = tested on: TevN201-ZFE (synthetic); assay: cell_activity
[2] = tested on: I-BmoI; assay: cleavage_in_vitro; details: one-site plasmid; two-site 0.096
Sequence of I-BmoI (chain, as listed by the source): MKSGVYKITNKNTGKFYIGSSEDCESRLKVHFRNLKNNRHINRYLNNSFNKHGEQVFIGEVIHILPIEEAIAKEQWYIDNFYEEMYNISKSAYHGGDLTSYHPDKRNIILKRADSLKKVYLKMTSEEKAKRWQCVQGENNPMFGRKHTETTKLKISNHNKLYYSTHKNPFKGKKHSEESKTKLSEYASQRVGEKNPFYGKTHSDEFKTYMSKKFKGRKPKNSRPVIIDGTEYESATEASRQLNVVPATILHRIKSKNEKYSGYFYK

Sequence of TevN201-ZFE (synthetic) (chain, as listed by the source): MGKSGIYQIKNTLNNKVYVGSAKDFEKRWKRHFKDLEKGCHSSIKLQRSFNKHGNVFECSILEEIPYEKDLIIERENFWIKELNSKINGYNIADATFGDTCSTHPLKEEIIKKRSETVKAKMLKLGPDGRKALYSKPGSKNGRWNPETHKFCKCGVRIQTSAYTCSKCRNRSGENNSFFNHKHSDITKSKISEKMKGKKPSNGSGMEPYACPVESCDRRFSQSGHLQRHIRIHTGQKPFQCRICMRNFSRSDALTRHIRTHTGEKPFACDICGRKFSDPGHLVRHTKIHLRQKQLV

“p11-lacY-wtx1 plasmid without target site” gave an activity [1] of 0 % survival.
In the case of pBmoIHS thyA homing site plasmid, the activity [2] is reported as 0.105 s-1 (kobs).
